# Assay results: patent JP2001526021A
# Target: ブラジキニン受容体 (bradykinin receptor) on SV-T2 cells
# Test: cell-based or functional assay
substance,measurement,value
ブラジキニン (bradykinin) (peptide),"PGE2合成 (PGE2 synthesis in SV-T2 cells, ELISA)",4 倍 (fold)
same,"PGE2合成 (PGE2 synthesis in SV-T2 cells, Fig. 7C)",4 倍 (fold)
